This data set deals with the molecule itself. As to the kind of experiment: SEC.

B1: human TYW5 (tRNA yW-synthesizing enzyme 5), wild type (enzyme)
chain: MAGQHLPVPRLEGVSREQFMQHLYPQRKPLVLEGIDLGPCTSKWTVDYLSQVGGKKEVKIHVAAVAQMDFISKNFVYRTLPFDQLVQRAAEEKHKEFFVSEDEKYYLRSLGEDPRKDVADIRKQFPLLKGDIKFPEFFKEEQFFSSVFRISSPGLQLWTHYDVMDNLLIQVTGKKRVVLFSPRDAQYLYLKGTKSEVLNIDNPDLAKYPLFSKARRYECSLEAGDVLFIPALWFHNVISEEFGVGVNIFWKHLPSECYDKTDTYGNKDPTAASRAAQILDRALKTLAELPEEYRDFYARRMVLHIQDKAYSKNSE
Consider B1, for which the “stoichiometry N” value is 2.

These data come from article PMC3045595 (Nucleic Acids Research, 2010).
